From US20150344570A1 (published 2015) come the findings set out here.

The labels stand for the following.
B1: GpH7-A5/GpH7-B3/GpL16-k0 (antibody, human IgG1, kappa)
heavy 1: not shown
heavy 2: not shown
light: DIVMTQSPLSLPVTPGEPASISCQASESLVHSNRNTYLHWYLQKPGQSPQLLIYKVSNRFSGVPDRFSGSGSGTDFTLKISRVEAEDVGVYYCSQNTHVPPTFGQGTKVEIERTVAAPSVFIFPPSDEQLKSGTASVVCLLNNFYPREAKVQWKVDNALQSGNSQESVTEQDSKDSTYSLSSTLTLSKADYEKHKVYACEVTHQGLSSPVTKSFNRGEC
notes: also called A5/B3; HeCon Ab
B2: GpH7-G1d/GpL16-k0 (antibody, human IgG1, kappa)
heavy: not shown
light: DIVMTQSPLSLPVTPGEPASISCQASESLVHSNRNTYLHWYLQKPGQSPQLLIYKVSNRFSGVPDRFSGSGSGTDFTLKISRVEAEDVGVYYCSQNTHVPPTFGQGTKVEIERTVAAPSVFIFPPSDEQLKSGTASVVCLLNNFYPREAKVQWKVDNALQSGNSQESVTEQDSKDSTYSLSSTLTLSKADYEKHKVYACEVTHQGLSSPVTKSFNRGEC
notes: Anti-glypican-3 IgG1 with C-terminal Gly and Lys removed; also called native IgG1
B3: GpH7-TA7/GpH7-B3/GpL16-k0 (antibody, human IgG1, kappa)
heavy 1: QVQLVQSGAEVKKPGASVTVSCKASGYTFTDYEMHWIRQPPGEGLEWIGAIDPKTGDTAYSESFQDRVTLTADKSTSTAYMELSSLTSEDTAVYYCTRFYSYTYWGQGTLVTVSSASTKGPSVFPLAPSSKSTSGGTAALGCLVKDYFPEPVTVSWNSGALTSGVHTFPAVLQSSGLYSLSSVVTVPSSSLGTQTYICNVNHKPSNTKVDKKVEPKSCDKTHTCPPCPAPEYLWGPSVFLFPPKPKDTLMISRTPEVTCVVVDVSHEDPEVKFNWYVDGVEVHNAKTKPREEQYNATYRVVSVLTVLHQDWLNGKEYKCKVSNKALPAPIEKTISKAKGQPREPQVYTLPPSRKELTKNQVSLTCLVKGFYPSDIAVEWESNGQPENNYKTTPPVLDSDGSFFLYSKLTVDKSRWQQGNVFSCSVMHEALHNRYTQKSLSLSP
heavy 2: not shown
light: DIVMTQSPLSLPVTPGEPASISCQASESLVHSNRNTYLHWYLQKPGQSPQLLIYKVSNRFSGVPDRFSGSGSGTDFTLKISRVEAEDVGVYYCSQNTHVPPTFGQGTKVEIERTVAAPSVFIFPPSDEQLKSGTASVVCLLNNFYPREAKVQWKVDNALQSGNSQESVTEQDSKDSTYSLSSTLTLSKADYEKHKVYACEVTHQGLSSPVTKSFNRGEC
notes: Heterodimerized anti-glypican-3 IgG1; also called TA7/B3
B4: GpH7-TA7/GpH7-TA45/GpL16-k0 (antibody, human IgG1, kappa)
heavy 1: QVQLVQSGAEVKKPGASVTVSCKASGYTFTDYEMHWIRQPPGEGLEWIGAIDPKTGDTAYSESFQDRVTLTADKSTSTAYMELSSLTSEDTAVYYCTRFYSYTYWGQGTLVTVSSASTKGPSVFPLAPSSKSTSGGTAALGCLVKDYFPEPVTVSWNSGALTSGVHTFPAVLQSSGLYSLSSVVTVPSSSLGTQTYICNVNHKPSNTKVDKKVEPKSCDKTHTCPPCPAPEYLWGPSVFLFPPKPKDTLMISRTPEVTCVVVDVSHEDPEVKFNWYVDGVEVHNAKTKPREEQYNATYRVVSVLTVLHQDWLNGKEYKCKVSNKALPAPIEKTISKAKGQPREPQVYTLPPSRKELTKNQVSLTCLVKGFYPSDIAVEWESNGQPENNYKTTPPVLDSDGSFFLYSKLTVDKSRWQQGNVFSCSVMHEALHNRYTQKSLSLSP
heavy 2: QVQLVQSGAEVKKPGASVTVSCKASGYTFTDYEMHWIRQPPGEGLEWIGAIDPKTGDTAYSESFQDRVTLTADKSTSTAYMELSSLTSEDTAVYYCTRFYSYTYWGQGTLVTVSSASTKGPSVFPLAPSSKSTSGGTAALGCLVKDYFPEPVTVSWNSGALTSGVHTFPAVLQSSGLYSLSSVVTVPSSSLGTQTYICNVNHKPSNTKVDKKVEPKSCDKTHTCPPCPAPEYLWGPSVFLFPPKPKDTLMISRTPEVTCVVVDVSHEDPEVKFNWYVDGVEVHNAKTKPREEQYNATYRVVSVLTVLHQDWLNGKEYKCKVSNKALPAPIEKTISKAKGQPREPQVYTLPPSRDELTKNQVSLTCLVKGFYPSDIAVEWESNGQPENNYKTTPPVLDSDGSFFLYSKLTVDKSRWQQGNVFSCSVMHEALHNHYTQESLSLSP
light: DIVMTQSPLSLPVTPGEPASISCQASESLVHSNRNTYLHWYLQKPGQSPQLLIYKVSNRFSGVPDRFSGSGSGTDFTLKISRVEAEDVGVYYCSQNTHVPPTFGQGTKVEIERTVAAPSVFIFPPSDEQLKSGTASVVCLLNNFYPREAKVQWKVDNALQSGNSQESVTEQDSKDSTYSLSSTLTLSKADYEKHKVYACEVTHQGLSSPVTKSFNRGEC
notes: Anti-glypican-3 IgG1; also called TA7/TA45
B5: GpH7-TA7/GpH7-B78/GpL16-k0 (antibody, human IgG1, kappa)
heavy 1: QVQLVQSGAEVKKPGASVTVSCKASGYTFTDYEMHWIRQPPGEGLEWIGAIDPKTGDTAYSESFQDRVTLTADKSTSTAYMELSSLTSEDTAVYYCTRFYSYTYWGQGTLVTVSSASTKGPSVFPLAPSSKSTSGGTAALGCLVKDYFPEPVTVSWNSGALTSGVHTFPAVLQSSGLYSLSSVVTVPSSSLGTQTYICNVNHKPSNTKVDKKVEPKSCDKTHTCPPCPAPEYLWGPSVFLFPPKPKDTLMISRTPEVTCVVVDVSHEDPEVKFNWYVDGVEVHNAKTKPREEQYNATYRVVSVLTVLHQDWLNGKEYKCKVSNKALPAPIEKTISKAKGQPREPQVYTLPPSRKELTKNQVSLTCLVKGFYPSDIAVEWESNGQPENNYKTTPPVLDSDGSFFLYSKLTVDKSRWQQGNVFSCSVMHEALHNRYTQKSLSLSP
heavy 2: QVQLVQSGAEVKKPGASVTVSCKASGYTFTDYEMHWIRQPPGEGLEWIGAIDPKTGDTAYSESFQDRVTLTADKSTSTAYMELSSLTSEDTAVYYCTRFYSYTYWGQGTLVTVSSASTKGPSVFPLAPSSKSTSGGTAALGCLVKDYFPEPVTVSWNSGALTSGVHTFPAVLQSSGLYSLSSVVTVPSSSLGTQTYICNVNHKPSNTKVDKKVEPKSCDKTHTCPPCPAPELLGGPDVFLFPPKPKDTLMISRTPEVTCVVVDVSHEDPEVKFNWYVDGVEVHNAKTKPREEQYNSTYRVVSVLTVLHQDWLNGKEYKCKVSNKALPLPEEKTISKAKGQPREPQVYTLPPSRDELTKNQVSLTCLVKGFYPSDIAVEWESNGQPENNYKTTPPVLDSDGSFFLYSKLTVDKSRWQQGNVFSCSVMHEALHNHYTQESLSLSP
light: DIVMTQSPLSLPVTPGEPASISCQASESLVHSNRNTYLHWYLQKPGQSPQLLIYKVSNRFSGVPDRFSGSGSGTDFTLKISRVEAEDVGVYYCSQNTHVPPTFGQGTKVEIERTVAAPSVFIFPPSDEQLKSGTASVVCLLNNFYPREAKVQWKVDNALQSGNSQESVTEQDSKDSTYSLSSTLTLSKADYEKHKVYACEVTHQGLSSPVTKSFNRGEC
notes: Heterodimerized anti-glypican-3 IgG1; also called TA7/B78
B6: GpH7-A5/GpH7-B78/GpL16-k0 (antibody, human IgG1, kappa)
heavy 1: not shown
heavy 2: QVQLVQSGAEVKKPGASVTVSCKASGYTFTDYEMHWIRQPPGEGLEWIGAIDPKTGDTAYSESFQDRVTLTADKSTSTAYMELSSLTSEDTAVYYCTRFYSYTYWGQGTLVTVSSASTKGPSVFPLAPSSKSTSGGTAALGCLVKDYFPEPVTVSWNSGALTSGVHTFPAVLQSSGLYSLSSVVTVPSSSLGTQTYICNVNHKPSNTKVDKKVEPKSCDKTHTCPPCPAPELLGGPDVFLFPPKPKDTLMISRTPEVTCVVVDVSHEDPEVKFNWYVDGVEVHNAKTKPREEQYNSTYRVVSVLTVLHQDWLNGKEYKCKVSNKALPLPEEKTISKAKGQPREPQVYTLPPSRDELTKNQVSLTCLVKGFYPSDIAVEWESNGQPENNYKTTPPVLDSDGSFFLYSKLTVDKSRWQQGNVFSCSVMHEALHNHYTQESLSLSP
light: DIVMTQSPLSLPVTPGEPASISCQASESLVHSNRNTYLHWYLQKPGQSPQLLIYKVSNRFSGVPDRFSGSGSGTDFTLKISRVEAEDVGVYYCSQNTHVPPTFGQGTKVEIERTVAAPSVFIFPPSDEQLKSGTASVVCLLNNFYPREAKVQWKVDNALQSGNSQESVTEQDSKDSTYSLSSTLTLSKADYEKHKVYACEVTHQGLSSPVTKSFNRGEC
notes: Heterodimerized anti-glypican-3 IgG1; also called A5/B78
B7: GpH7-A57/GpH7-B78/GpL16-k0 (antibody, human IgG1, kappa)
heavy 1: QVQLVQSGAEVKKPGASVTVSCKASGYTFTDYEMHWIRQPPGEGLEWIGAIDPKTGDTAYSESFQDRVTLTADKSTSTAYMELSSLTSEDTAVYYCTRFYSYTYWGQGTLVTVSSASTKGPSVFPLAPSSKSTSGGTAALGCLVKDYFPEPVTVSWNSGALTSGVHTFPAVLQSSGLYSLSSVVTVPSSSLGTQTYICNVNHKPSNTKVDKKVEPKSCDKTHTCPPCPAPELLGGPDVFLFPPKPKDTLMISRTPEVTCVVVDVSHEDPEVKFNWYVDGVEVHNAKTKPREEQYNSTYRVVSVLTVLHQDWLNGKEYKCKVSNKALPLPEEKTISKAKGQPREPQVYTLPPSRKELTKNQVSLTCLVKGFYPSDIAVEWESNGQPENNYKTTPPVLDSDGSFFLYSKLTVDKSRWQQGNVFSCSVMHEALHNRYTQKSLSLSP
heavy 2: QVQLVQSGAEVKKPGASVTVSCKASGYTFTDYEMHWIRQPPGEGLEWIGAIDPKTGDTAYSESFQDRVTLTADKSTSTAYMELSSLTSEDTAVYYCTRFYSYTYWGQGTLVTVSSASTKGPSVFPLAPSSKSTSGGTAALGCLVKDYFPEPVTVSWNSGALTSGVHTFPAVLQSSGLYSLSSVVTVPSSSLGTQTYICNVNHKPSNTKVDKKVEPKSCDKTHTCPPCPAPELLGGPDVFLFPPKPKDTLMISRTPEVTCVVVDVSHEDPEVKFNWYVDGVEVHNAKTKPREEQYNSTYRVVSVLTVLHQDWLNGKEYKCKVSNKALPLPEEKTISKAKGQPREPQVYTLPPSRDELTKNQVSLTCLVKGFYPSDIAVEWESNGQPENNYKTTPPVLDSDGSFFLYSKLTVDKSRWQQGNVFSCSVMHEALHNHYTQESLSLSP
light: DIVMTQSPLSLPVTPGEPASISCQASESLVHSNRNTYLHWYLQKPGQSPQLLIYKVSNRFSGVPDRFSGSGSGTDFTLKISRVEAEDVGVYYCSQNTHVPPTFGQGTKVEIERTVAAPSVFIFPPSDEQLKSGTASVVCLLNNFYPREAKVQWKVDNALQSGNSQESVTEQDSKDSTYSLSSTLTLSKADYEKHKVYACEVTHQGLSSPVTKSFNRGEC
notes: Anti-glypican-3 IgG1; also called A57/B78
B8: GpH7-G1d/GpL16-k0 (antibody, human IgG1, kappa)
heavy: not shown
light: DIVMTQSPLSLPVTPGEPASISCQASESLVHSNRNTYLHWYLQKPGQSPQLLIYKVSNRFSGVPDRFSGSGSGTDFTLKISRVEAEDVGVYYCSQNTHVPPTFGQGTKVEIERTVAAPSVFIFPPSDEQLKSGTASVVCLLNNFYPREAKVQWKVDNALQSGNSQESVTEQDSKDSTYSLSSTLTLSKADYEKHKVYACEVTHQGLSSPVTKSFNRGEC
notes: Anti-glypican-3 IgG1 whose H chain lacks the C-terminal Gly and Lys; Used as the native IgG1 control; also called native IgG1

T1 sequence (P08637 17-208): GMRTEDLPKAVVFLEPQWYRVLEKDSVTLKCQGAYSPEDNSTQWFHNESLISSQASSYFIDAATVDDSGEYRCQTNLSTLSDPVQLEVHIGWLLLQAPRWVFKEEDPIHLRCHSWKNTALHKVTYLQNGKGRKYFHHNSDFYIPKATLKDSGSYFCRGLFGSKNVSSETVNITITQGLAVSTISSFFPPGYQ
T2 sequence (P08637 17-208): as above

One assay addresses T1, FcγRIIIa F extracellular domain with C-terminal His tag (human, UniProt P08637 17-208).
T1 construct: extracellular domain; Soluble receptor, F158 allotype; also called FcgRIIIa F; FcgRIIIaF; not shown: His tag at the C terminus
In words: SPR (Biacore); KD for FcγRIIb divided by KD for FcγRIIIa F. How it is done: The prepared antibodies were assayed as to the KDs for FcγRIIIa and FcγRIIb according to the method described in Reference Example 2.
(§1) Analysis of interaction between objective antibody and the FcγR was carried out using Biacore T100 (GE Healthcare). HBS-EP+ (GE Healthcare) was used as the running buffer, and the measurement temperature was set to 25° C. Chips produced by immobilizing the antigen peptide by the amine coupling method to a Series S Sencor Chip CM5 (GE Healthcare), or alternatively, chips produced by allowing preliminarily biotinylated antigen peptides to interact with and immobilize onto a Series S Sensor Chip SA (certified) (GE Healthcare) were used. Antibodies of interest were captured onto an antigen peptide-immobilized chip, and allowed to interact to each FcγR diluted with running buffer. To regenerate and repeatedly use the chip, the antibodies captured on the chip were washed off by reacting 10 mM glycine-HCl, pH 1.5.
Regarding B1, the “FcγRIIIa F/FcγRIIb ratio” value stood at 1.9.
Same read-out and setting: under B2 stands 2.5; under B3, 14.
For the molecule B4, the “FcγRIIIa F/FcγRIIb ratio” value was determined as 5.3.
Same read-out and setting: under B5 stands 244; under B6, 7.9; under B7, 100.

A further assay concerns the target T2, FcγRIIIa (human, UniProt P08637 17-208).
T2 construct: extracellular domain; also called FcgRIIIa; CD16A; not shown: His tag attached to the C terminus
In words: ratio of SPR KDs: KD of GpH7-G1d/GpL16-k0 divided by KD of this antibody. The protocol: The prepared antibodies were compared for the FcγRIIIa-binding activity using, as an indicator, KD for FcγRIIIa that was determined according to the method described in Reference Example 2.
as §1
Specifically, to calculate association rate constant ka (L/mol/s) and dissociation rate constant kd (1/s), sensorgrams obtained by measurement were processed for global fitting by Biacore Evaluation Software using 1:1 Langmuir binding model and dissociation constant KD (mol/1) was calculated from the resulting values.
For B8, the “KD ratio 1” value worked out at 1 fold.
